In publication PMC6981200:

Molecular target: streptavidin-binding peptide-tagged constitutively active form of TAZ (SBP-TAZ4SA) (human) (UniProt Q9GZV5)
UniProt Q9GZV5, sequence (Q9GZV5 whole entry): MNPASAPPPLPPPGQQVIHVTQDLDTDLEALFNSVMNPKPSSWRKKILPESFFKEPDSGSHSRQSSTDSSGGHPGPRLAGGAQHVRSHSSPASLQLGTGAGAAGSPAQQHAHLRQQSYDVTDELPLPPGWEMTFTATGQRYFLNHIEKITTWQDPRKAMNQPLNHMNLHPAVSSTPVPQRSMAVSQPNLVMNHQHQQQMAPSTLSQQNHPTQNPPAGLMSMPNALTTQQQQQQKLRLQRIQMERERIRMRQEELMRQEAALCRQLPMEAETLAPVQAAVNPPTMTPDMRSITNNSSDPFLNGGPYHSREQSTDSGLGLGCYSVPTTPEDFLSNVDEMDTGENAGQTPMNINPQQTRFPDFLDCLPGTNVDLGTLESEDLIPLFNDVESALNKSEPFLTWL

Substance: Flag-p52 (from UniProt Q9WTK5 1-454) (natural protein)
- Ccl19 promoter-driven luciferase activity in HEK293T cells co-transfected with TAZ4SA and p52 (p52 alone: 7.5-fold): 13.5 fold
